This is an account of results in paper doi:10.1101/2020.10.19.344861 (bioRxiv, 2020).

Usually stoichiometry N stands for a count of units in the complex or per binding partner.

The data set concerns the molecule itself. The data set can be described thus: SEC-MALS. (In general: Size exclusion chromatography separates by hydrodynamic size, large species first.)

B1: CynR (full length) (natural protein, Escherichia coli, UniProt P27111 1-299, looked up)
chain: MLSRHINYFLAVAEHGSFTRAASALHVSQPALSQQIRQLEESLGVPLFDRSGRTIRLTDAGEVWRQYASRALQELGAGKRAIHDVADLTRGSLRIAVTPTFTSYFIGPLMADFYARYPSITLQLQEMSQEKIEDMLCRDELDVGIAFAPVHSPELEAIPLLTESLALVVAQHHPLAVHEQVALSRLHDEKLVLLSAEFATREQIDHYCEKAGLHPQVVIEANSISAVLELIRRTSLSTLLPAAIATQHDGLKAISLAPPLLERTAVLLRRKNSWQTAAAKAFLHMALDKCAVVGGNESR
In the case of B1, the “stoichiometry N” value was 4.

B2: cherry-core (CC) of CynR, effector binding domain (domain or fragment, Escherichia coli, UniProt P27111 59-299, looked up)
chain: DAGEVWRQYASRALQELGAGKRAIHDVADLTRGSLRIAVTPTFTSYFIGPLMADFYARYPSITLQLQEMSQEKIEDMLCRDELDVGIAFAPVHSPELEAIPLLTESLALVVAQHHPLAVHEQVALSRLHDEKLVLLSAEFATREQIDHYCEKAGLHPQVVIEANSISAVLELIRRTSLSTLLPAAIATQHDGLKAISLAPPLLERTAVLLRRKNSWQTAAAKAFLHMALDKCAVVGGNESR
Take B2: the “stoichiometry N” value was found to be 2.
